From patent US20020111475A1 (IMMUNEX, published 2002)
Changes are numbered by the printed parent chain. Names and notes keep the numbering of the source.

Target: T1, flt3 on murine WWF7 cells
T1 sequence (Q00342 whole entry, looked up): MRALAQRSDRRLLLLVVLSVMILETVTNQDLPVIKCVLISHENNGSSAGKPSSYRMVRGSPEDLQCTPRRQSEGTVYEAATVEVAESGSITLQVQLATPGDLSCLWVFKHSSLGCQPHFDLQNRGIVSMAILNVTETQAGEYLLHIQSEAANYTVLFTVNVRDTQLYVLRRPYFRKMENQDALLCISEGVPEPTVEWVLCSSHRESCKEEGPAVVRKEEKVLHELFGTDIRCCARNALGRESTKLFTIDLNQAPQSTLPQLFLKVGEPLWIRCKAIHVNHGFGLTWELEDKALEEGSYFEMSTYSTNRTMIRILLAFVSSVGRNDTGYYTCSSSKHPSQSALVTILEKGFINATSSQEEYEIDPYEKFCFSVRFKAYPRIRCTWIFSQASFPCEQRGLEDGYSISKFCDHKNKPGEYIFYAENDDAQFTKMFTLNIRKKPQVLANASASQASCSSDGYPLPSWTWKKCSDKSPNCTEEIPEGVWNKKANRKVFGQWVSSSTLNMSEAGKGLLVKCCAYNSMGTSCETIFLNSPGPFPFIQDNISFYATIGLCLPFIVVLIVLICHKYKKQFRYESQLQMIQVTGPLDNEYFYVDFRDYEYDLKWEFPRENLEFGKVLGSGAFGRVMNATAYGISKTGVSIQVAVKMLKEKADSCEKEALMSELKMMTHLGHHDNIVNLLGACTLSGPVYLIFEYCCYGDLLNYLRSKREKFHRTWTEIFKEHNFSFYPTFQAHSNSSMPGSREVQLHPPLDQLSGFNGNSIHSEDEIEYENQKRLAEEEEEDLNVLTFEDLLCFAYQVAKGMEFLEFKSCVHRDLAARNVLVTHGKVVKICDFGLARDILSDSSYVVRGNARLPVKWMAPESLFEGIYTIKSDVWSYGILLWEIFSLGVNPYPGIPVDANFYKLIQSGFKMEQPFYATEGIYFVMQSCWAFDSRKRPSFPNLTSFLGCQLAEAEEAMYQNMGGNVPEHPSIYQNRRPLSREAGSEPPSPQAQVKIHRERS
Experiment: cell-based or functional assay

B1: flt3-L mutant F15L (ligand)
chain: LSGTQDCSFQHSPISSDLAVKIRELSDYLLQDYPVTVASNLQDEELCGGLWRLVLAQRWMERLKTVAGSKMQGLLERVNTEIHFVTKCAFQPPPSCLRFVQTNISRLLQETSEQLVALKPWITRQNFARCLELQCQPDSSTLPPPWSPRPLEATAPTAPQPPLLLLLLLPVGLLLLAAAWCLHWQRTRRRTPRPGEQVPPVPSPQDLLLVEH
- Sp.Ac. MUT / Sp.Ac. WT (WWF7 cell proliferation units/ml per flt3-L ng/ml by ELISA, yeast supernatant): 0 ratio to wild type

B2: flt3-L mutant F15Y (ligand)
chain: B1 chain with L18Y
- Sp.Ac. MUT / Sp.Ac. WT (WWF7 cell proliferation units/ml per flt3-L ng/ml by ELISA, yeast supernatant): 0.19 ratio to wild type

B3: flt3-L mutant F124S (ligand)
chain: B1 chain with L18F, F127S
- Sp.Ac. MUT / Sp.Ac. WT (WWF7 cell proliferation units/ml per flt3-L ng/ml by ELISA, yeast supernatant): 0 ratio to wild type

B4: flt3-L mutant A64T (ligand)
chain: B1 chain with L18F, A67T
- Sp.Ac. MUT / Sp.Ac. WT (WWF7 cell proliferation units/ml per flt3-L ng/ml by ELISA, yeast supernatant): 0.09 ratio to wild type

B5: flt3-L mutant P90S (ligand)
chain: B1 chain with L18F, P93S
- Sp.Ac. MUT / Sp.Ac. WT (WWF7 cell proliferation units/ml per flt3-L ng/ml by ELISA, yeast supernatant): 0.09 ratio to wild type

B6: flt3-L mutant S9G (ligand)
chain: B1 chain with S12G, L18F
- Sp.Ac. MUT / Sp.Ac. WT (WWF7 cell proliferation units/ml per flt3-L ng/ml by ELISA, yeast supernatant): 0.13 ratio to wild type

B7: flt3-L mutant V113E (ligand)
chain: B1 chain with L18F, V116E
- Sp.Ac. MUT / Sp.Ac. WT (WWF7 cell proliferation units/ml per flt3-L ng/ml by ELISA, yeast supernatant): 0.8 ratio to wild type

B8: flt3-L mutant R55C (ligand)
chain: B1 chain with L18F, R58C
- Sp.Ac. MUT / Sp.Ac. WT (WWF7 cell proliferation units/ml per flt3-L ng/ml by ELISA, yeast supernatant): 0.05 ratio to wild type

B9: flt3-L mutant R95C (ligand)
chain: B1 chain with L18F, R98C
- Sp.Ac. MUT / Sp.Ac. WT (WWF7 cell proliferation units/ml per flt3-L ng/ml by ELISA, yeast supernatant): 0.26 ratio to wild type

B10: flt3-L mutant S13P (ligand)
chain: B1 chain with S16P, L18F
- Sp.Ac. MUT / Sp.Ac. WT (WWF7 cell proliferation units/ml per flt3-L ng/ml by ELISA, yeast supernatant): 0 ratio to wild type

B11: flt3-L mutant F87L (ligand)
chain: B1 chain with L18F, F90L
- Sp.Ac. MUT / Sp.Ac. WT (WWF7 cell proliferation units/ml per flt3-L ng/ml by ELISA, yeast supernatant): 0.01 ratio to wild type

B12: flt3-L mutant V75A (ligand)
chain: B1 chain with L18F, V78A
- Sp.Ac. MUT / Sp.Ac. WT (WWF7 cell proliferation units/ml per flt3-L ng/ml by ELISA, yeast supernatant): 0.18 ratio to wild type

B13: flt3-L mutant F124L (ligand)
chain: B1 chain with L18F, F127L
- Sp.Ac. MUT / Sp.Ac. WT (WWF7 cell proliferation units/ml per flt3-L ng/ml by ELISA, yeast supernatant): 0.22 ratio to wild type

B14: flt3-L mutant D3G (ligand)
chain: B1 chain with D6G, L18F
- Sp.Ac. MUT / Sp.Ac. WT (WWF7 cell proliferation units/ml per flt3-L ng/ml by ELISA, yeast supernatant): 0.81 ratio to wild type

B15: flt3-L mutant P10S (ligand)
chain: B1 chain with P13S, L18F
- Sp.Ac. MUT / Sp.Ac. WT (WWF7 cell proliferation units/ml per flt3-L ng/ml by ELISA, yeast supernatant): 0 ratio to wild type

B16: flt3-L mutant F81L (ligand)
chain: B1 chain with L18F, F84L
- Sp.Ac. MUT / Sp.Ac. WT (WWF7 cell proliferation units/ml per flt3-L ng/ml by ELISA, yeast supernatant): 0.06 ratio to wild type

B17: flt3-L mutant S13F (ligand)
chain: B1 chain with S16F, L18F
- Sp.Ac. MUT / Sp.Ac. WT (WWF7 cell proliferation units/ml per flt3-L ng/ml by ELISA, yeast supernatant): 0 ratio to wild type

B18: flt3-L mutant R55L (ligand)
chain: B1 chain with L18F, R58L
- Sp.Ac. MUT / Sp.Ac. WT (WWF7 cell proliferation units/ml per flt3-L ng/ml by ELISA, yeast supernatant): 0.29 ratio to wild type

B19: flt3-L mutant R20C (ligand)
chain: B1 chain with L18F, R23C
- Sp.Ac. MUT / Sp.Ac. WT (WWF7 cell proliferation units/ml per flt3-L ng/ml by ELISA, yeast supernatant): 0.11 ratio to wild type
